# According to the DeepSol protein solubility set:
# Experiment: soluble on expression in E. coli; label from the status in PepcDB or PDB records
row,Sequence,soluble on expression in E. coli
1,MGSDKIHHHHHHMLLPLSSQNVIQHLQAADLCSSEDGKSDIVELPISKKNYNLVVNLADNRKLLVKQERGVENDGILHELFNEWLFHQLLQKFPILGNISAIAPLVVHFDEENSILVRSYLSEYLDLAEFYQNPNVFPKEIAAAIGTTLAALHRTTFQGKEYRDFMATAPQGQFRYHFYNPAQGISSLNPEIFGRIPTEALKFHVLYQCYESLEAAIADLAYEWDACCLTHNDLKLNNILIHSRWNQLDNCLVQLIDWEACTWGDPAFDLGTILASYLEIWLESLVVDPTLELAESLELVMIPLEEIQPSLVALLQAYLQAFPMILEYHPNFLVRVIKFIGLALIHQIQDKINNCKLFDNSHLYMLQVAKNLLTMPEQSILSIFGISEAEILSPVAKVPQVSHPEKEKQLVPLYYEKTRLRGC,not soluble
2,MGSDKIHHHHHHMTINFRRNALQLSVAALFSSAFMANAADVPQVKVTVTDKQCEPMTITVNAGKTQFIIQNHSQKALEWEILKGVMVVEERENIAPGFSQKMTANLQPGEYDMTCGLLTNPKGKLIVKGEATADAAQSDALLSLGGAITAYKAYVMAETTQLVTDTKAFTDAIKAGDIEKAKALYAPTRQHYERIEPIAELFSDLDGSIDAREDDYEQKAADPKFTGFHRLEKALFGDNTTKGMDQYAEQLYTDVVDLQKRISELAFPPSKVVGGAAGLIEEVAASKISGEEDRYSHTDLWDFQANVEGSQKIVDLLRPQLQKANPELLAKVDANFKKVDTILAKYRTKDGFETYDKLTDADRNALKGPITALAEDLAQLRGVLGLD,not soluble
3,MDVKLLAHTQLSEEFVNYLSVVFGIGDEGFDPTHGQVVALSAIRTCYSPNKPSRIVSLEGEKYFKGKATDGKGGKEVDRLIRHIVGSGHASTLEHLTYTFAVEGVSRALLAQLTRHRVGFSYSVQSQRYVRMGSNDKIGGFDYVVPETVKAKGEQVVNAYNEMMYKLQSGYDLLRTLGIPAEDARSVLPNAAATNLVLTVNLRGLLDFYNKRRKGKGAQAEIAELAEQLRQEVVKVEKWVDEFFWKWKVTEV,not soluble
4,FPVETVQIPVNDEYAVHGWLAHGMSGHGAVLLVHSMRSNRLEMLGRARFLNNQGYHVLMIDLQAHGETPGDRITFGARESADVAAAVGYLRSTFPHDRIAAIGATLGAAAIVLANPPLKLDAMILESLHPTFAEAVANRLKLHLGNTGEYLQFLLLPYFSFLLDLPVNQLNPVDRIGNIAIPVLFIAGTLDRHTTQSEVKRLYDAALPPKELWIVEGAGHYNMHTFAGKSYEMQIADFLSTYL,not soluble
5,MAEKAENLPSSSAEASEEPSPQTGPNVNQKPSILVLGMAGSGKTTFVQRLTAFLHARKTPPYVINLDPAVSKVPYPVNVDIRDTVKYKEVMKEFGMGPNGAIMTCLNLMCTRFDKVIELINKRSSDFSVCLLDTPGQIEAFTWSASGSIITDSLASSHPTVVMYIVDSARATNPTTFMSNMLYACSILYRTKLPFIVVFNKADIVKPTFALKWMQDFERFDEALEDARSSYMNDLSRSLSLVLDEFYCGLKTVCVSSATGEGFEDVMTAIDESVEAYKKEYVPMYEKVLAEKKLLDEEERKKRDEETLKGKAVHDLNKVANPDEFLESELNSKIDRIHLGGVDEENEEDAELERS,not soluble
6,MGSDKIHHHHHHMDKMKAITFFDLDGTLLDGTSQITPEITAAVAALKDNQILPLIATGRTLCEIQPIMKASGIDSAIVMNGQFIHYEGKTIYSDEFTTEECVSLHEHVKQRGHELAFYNERRIFCTGHTGTVKQAYDYIHSAVPEIDPTGYENDAVNMMLVLSQHGDDDEYYYERFPELTFYRNGPFSIDIVRKGVSKGSGVKNLFNTLGLNGIPTYAFGDGINDLALFEACDYGIAMGNAREELKEKATFISTKNTENGIVNGLKKFDLL,not soluble
7,SLTTLTVRVFTTAEIIYRKTVIALVCHLNCSRQETVTMNKTITALAIMMASFAANASVLPETPVPFKSGTGAIDNDTVYIGLGSAGTAWYKLDTQAKDKKWTALAAFPGGPRDQATSAFIDGNLYVFGGIGKNSEGLTQVFNDVHKYNPKTNSWVKLMSHAPMGMAGHVTFVHNGKAYVTGGVNQNIFNGYFEDLNEAGKDSTAIDKINAHYFDKKAEDYFFNKFLLSFDPSTQQWSYAGESPWYGTAGAAVVNKGDKTWLINGEAKPGLRTDAVFELDFTGNNLKWNKLAPVSSPDGVAGGFAGISNDSLIFAGGAGFKGSRENYQNGKNYAHEGLKKSYSTDIHLWHNGKWDKSGELSQGRAYGVSLPWNNSLLIIGGETAGGKAVTDSVLITVKDNKVTVQN,not soluble
8,DKTVKRAVPFKIIKMIKELDLSFEPQLELARDIFLFSFYTRGMSFIDMAHLKKSNLQNGILTYSRKKTGQRLTILWEELMQEIVDKYKDDTSEYLLPILRYCDINDRKQYKLRAKQIGRGLNKIGLRLELKAPLTFYVARHSWASIAQDRKVSTDIIREGLGHDNEKTTHIYLASISTSQIDRANQIILRGL,soluble
9,MKKVELLAPAGNLEKLKMAVLYGADAVYLGGEEFSLRAYAENFTLDELKAGVEFAHSKGKKVYVTINIFPHNDDLKKIPEYIKEVAGIGVDAIILSDPGILSIVKEIAPDMEIHLSTQANNTNFMSARFWHNHGVKRIILARELSLEEIREIREKTPDSLELEVFVHGAMCISYSGRCLLSNYMAGRDSNRGLCAHPCRWKYYLMEEKRPGEYYPVYENERGTFIFNSRDLCMIEHIPELVESGVSSFKIEGRMKSSFYVATVVKAYREAIDAYYEDKDNYKFDPRLLEEVCKVSHREFTTGFFFNKPGPKDQIYATSSYIREYDFVGVVQKYDKATKIATVEQRNRMYKGEEIEVVNPKGNFFVQKIEWMKNADGEDIDVAPHPQMTVYMPMKEDVEEFAMLRRKSSPNK,soluble
10,MGSDKIHHHHHHMLLRKDEVFYIDLPRKIEKEEKVKEEKTKENAAEEIQRIEKMREKILSEAQEEARKIIEGARKDAEEILSNASSEAEALKLEAKKVLEEAKTMKNDFQKYILALKEKIQKQVNQRIEEILPELLDILRILFKKILEKEMDESTVERKLRSALSKVVGIKNVKIRINPEDAKKLDLSEVSKETLIPDPNVERGGVIVETDFGILDKTFSHQWELVEDIFEEVVGFEGHPERAEKEVE,not soluble
11,MIDNFWRELPRPFFVLAPMEDVTDVVFRHVVSEAGRPDVFFTEFTNSDSYCHPEGMKSVRGRLIFTEDEQPMVAHIWGDNPEYFRQMSIGMAELGFKGIDINMGCPVPNVASRGKGSGLILRPDVAAELIQAAKAGGLPVSVKTRLGFKELSEWEDWLTHIFKQDIANLSIHLRTREEMSQVDAHWELIPEIKKLRDRIAPNTLITINGDILDRKMGLELAEKYGIDGVMIGRGIFKNPFAFEKEPREHSSKEHLDLLRLQLDLQDQYAEVLPRSITGLHRFFKIYVKGFPGAAELRNQLMSTKSTDEVRALLDKFEASVDEAQDSETV,not soluble
12,MDANEKKEVIKKKYQEIAILGGSCCSGGCCGDSNSTDLSRSLGYSESDVQAVPDANMGLGCGNPTAFAELKPGDVVLDLGSGGGFDCFLAAQKIGSSGKVIGVDMTLEMVEKAQANARKYGYSNVEFRHGDIESLPVKDSSVDVIISNCVINLAPDKEKVFREAFRVLKPEGRMYISDMVLLDELPEELKNDSELLAGCIAGAVLKEEYLGLLKKAGFSVEILNEDLDISKRQYRDLPVESLKLKARVLEHHHHHH,soluble
13,GERIDIRISPYLQDLFDAARADGVYPIVASGYRTTEKQQEIMDEKVAEYKAKGYTSAQAKAEAETWVAVPGTSEHQLGLAVDINADGIHSTGNEVYRWLDENSYRFGFIRRYPPDKTEITGVSNEPWHYRYVGIEAATKIYHQGLCLEEYLNTEK,not soluble
14,MLIVKTLVIIPTYNEAENIRPLVEDILDRYPEGLELLVIDDSSPDGTAGIVKAIMKNEPRVMLLSRPSKLGLGTAYLTGFRYALERGYERVIEMDADFSHDPASIASLIKAMDGADMVIGSRYMNNTVNVVNWPLSRLILSKSASIYSRWITGMPVSDPTSGFKCISAKALRFIALDRVRSQGYSFQIEIDFRVWKKNLVIHEVPIIFVDRSVGKSKMTRKNIVEAVWMVWWLKFLSIIGRLLEHHHHHH,not soluble
15,MGSDKIHHHHHHAELPAGTVIDKANLDKIKSDTFDGHTIASLLTDKLEWQIRNTGLKIPLGHAKPVQLDPKYIEATKKNAGKAQFDEKSREVTGWVAGIPFPEVSQNDPFAGDKLVWNFYYASPEGDVINNKATFLMISGDKGLESTQDWLFERYYMKGRISGDKPVLGDGSILSKTLFVATAPEDIKGVGTFTIRYDSPKLEDSWAYIKSARRTRRLSGGAWMDPVGGLDVLNDDIYVWNARPSWYPKVKLVGRRWILAISDAKLGYNASKKGTPEEWKTVDLSNPPYWNPVQTWQPREVWVIEGTPPAEHPYGKKVVYMDVNYPRVYMGEAYDKKGEFWKFINFHMTPSVGEDGTKYSSSIQGDIIDFKARHASIYLFRGYKLNEAKIKETDMSYSALESIAK,not soluble
16,MGSDKIHHHHHHMLNRVHLNGLRAVETVARLGSLAAAAGELNVSVSAVSQQISRTEKQLGQALFERTASGLVLTEFGAAFATRLGAGFRELAQAVALADEASQCTLVVSVAPAFASKWLLPRLSRHFDRHPNVLLRIDASVRLANLDHSDVDIAIRLGDGEWPGVRAELLLAQEVFPVCAPSIAAKLRSIEDLAQTCAITDERSMISWDSWFKAAGVEPVTFLKGARFTDPMLCLESAIAGHGVMLAWQLLTADALTDGRLVAPFGVRAESGLGYWMVTSATKAESRKVHDFKAWIREEIETTMAQFRTLDSAA,not soluble
17,MIQITVVQIDNYGPWTVTPNPRRESDLQALQSRLYCDMNLQFGAHKGLAFYTRFDNIIAITNGIDLETHKRIQNSVKNRYPFTVSMAVASAETAYEAQKLATKTIQEYGSAQDDVRKEVLDVANEFVSNGYVQLAHVDINDITGKLTDLETAYDTYLSVQKTKLKLMEELKKYDSLGFFIGGDNFMCPCNGMNEKDFLCMFEDIKDSCGIELKAGIGIGKTAEDASNLADIGLEVIREGKTDSQVYTLKQ,not soluble
18,MKTIGILGGMGPLATAELFRRIVIKTPAKRDQEHPKVIIFNNPQIPDRTAYILGKGEDPRPQLIWTAKRLEECGADFIIMPCNTAHAFVEDIRKAIKIPIISMIEETAKKVKELGFKKAGLLATTGTIVSGVYEKEFSKYGVEIMTPTEDEQKDVMRGIYEGVKAGNLKLGRELLLKTAKILEERGAECIIAGCTEVSVVLKQDDLKVPLIDPMDVIAEVAVKVALEK,soluble
19,MGSDKIHHHHHHMNAIAKHKENLLLDGFTIIDDIYSDEEVQQILAVIENADMSNETFRKSSDLFAIRQFLKEIPEAKELIYNKNLKKVGAELFGTDFFTVKSIYFDKPETSNWYVAYHQDLTISVDTKIDLAGFGPWTVKQNQFAVQPPLEILKNIFTIRIHLDDTNEENGALKVVPGSHAKNIYRPETIDWSVEKEISCNVKKGGIMIMKPLLLHSSGRTTNNKKRRVIHIEFSNQELPVELNWAERLN,not soluble
